The values below come from article PMC5002983, “Hepatocyte Growth Factor Modulates MET Receptor Tyrosine Kinase and β-Catenin Functional Interactions to Enhance Synapse Formation” (eNeuro, 2016).

To fix the notation:
B1: β-catenin (natural protein, UniProt Q02248 1-781, looked up)
chain: MATQADLMELDMAMEPDRKAAVSHWQQQSYLDSGIHSGATTTAPSLSGKGNPEEEDVDTSQVLYEWEQGFSQSFTQEQVADIDGQYAMTRAQRVRAAMFPETLDEGMQIPSTQFDAAHPTNVQRLAEPSQMLKHAVVNLINYQDDAELATRAIPELTKLLNDEDQVVVNKAAVMVHQLSKKEASRHAIMRSPQMVSAIVRTMQNTNDVETARCTAGTLHNLSHHREGLLAIFKSGGIPALVKMLGSPVDSVLFYAITTLHNLLLHQEGAKMAVRLAGGLQKMVALLNKTNVKFLAITTDCLQILAYGNQESKLIILASGGPQALVNIMRTYTYEKLLWTTSRVLKVLSVCSSNKPAIVEAGGMQALGLHLTDPSQRLVQNCLWTLRNLSDAATKQEGMEGLLGTLVQLLGSDDINVVTCAAGILSNLTCNNYKNKMMVCQVGGIEALVRTVLRAGDREDITEPAICALRHLTSRHQEAEMAQNAVRLHYGLPVVVKLLHPPSHWPLIKATVGLIRNLALCPANHAPLREQGAIPRLVQLLVRAHQDTQRRTSMGGTQQQFVEGVRMEEIVEGCTGALHILARDVHNRIVIRGLNTIPLFVQLLYSPIENIQRVAAGVLCELAQDKEAAEAIEAEGATAPLTELLHSRNEGVATYAAAVLFRMSEDKPQDYKKRLSVELTSSLFRTEPMAWNETADLGLDIGAQGEALGYRQDDPSYRSFHSGGYGQDALGMDPMMEHEMGGHHPGADYPVDGLPDLGHAQDLMDGLPPGDSNQLAWFDTDL
notes: β-catenin, mouse, endogenous; Endogenous protein, precipitated with mouse anti-β-catenin (BD Biosciences); With HGF a part of it is phosphorylated at Y142; source: endogenous, lysate of crude synaptosomes from P14 mouse neocortex; endogenous, primary mouse neocortical neurons (14 DIV)
B2: MET receptor tyrosine kinase (receptor, UniProt P16056 25-1379, looked up)
chain: ECKEALVKSEMNVNMKYQLPNFTAETPIQNVVLHGHHIYLGATNYIYVLNDKDLQKVSEFKTGPVLEHPDCLPCRDCSSKANSSGGVWKDNINMALLVDTYYDDQLISCGSVNRGTCQRHVLPPDNSADIQSEVHCMFSPEEESGQCPDCVVSALGAKVLLSEKDRFINFFVGNTINSSYPPGYSLHSISVRRLKETQDGFKFLTDQSYIDVLPEFLDSYPIKYIHAFESNHFIYFLTVQKETLDAQTFHTRIIRFCSVDSGLHSYMEMPLECILTEKRRKRSTREEVFNILQAAYVSKPGANLAKQIGASPSDDILFGVFAQSKPDSAEPVNRSAVCAFPIKYVNDFFNKIVNKNNVRCLQHFYGPNHEHCFNRTLLRNSSGCEARSDEYRTEFTTALQRVDLFMGRLNQVLLTSISTFIKGDLTIANLGTSEGRFMQVVLSRTAHLTPHVNFLLDSHPVSPEVIVEHPSNQNGYTLVVTGKKITKIPLNGLGCGHFQSCSQCLSAPYFIQCGWCHNQCVRFDECPSGTWTQEICLPAVYKVFPTSAPLEGGTVLTICGWDFGFRKNNKFDLRKTKVLLGNESCTLTLSESTTNTLKCTVGPAMSEHFNVSVIISNSRETTQYSAFSYVDPVITSISPRYGPQAGGTLLTLTGKYLNSGNSRHISIGGKTCTLKSVSDSILECYTPAQTTSDEFPVKLKIDLANRETSSFSYREDPVVYEIHPTKSFISGGSTITGIGKTLNSVSLPKLVIDVHEVGVNYTVACQHRSNSEIICCTTPSLKQLGLQLPLKTKAFFLLDGILSKHFDLTYVHNPVFEPFEKPVMISMGNENVVEIKGNNIDPEAVKGEVLKVGNQSCESLHWHSGAVLCTVPSDLLKLNSELNIEWKQAVSSTVLGKVIVQPDQNFAGLIIGAVSISVVVLLLSGLFLWMRKRKHKDLGSELVRYDARVHTPHLDRLVSARSVSPTTEMVSNESVDYRATFPEDQFPNSSQNGACRQVQYPLTDLSPILTSGDSDISSPLLQNTVHIDLSALNPELVQAVQHVVIGPSSLIVHFNEVIGRGHFGCVYHGTLLDNDGKKIHCAVKSLNRITDIEEVSQFLTEGIIMKDFSHPNVLSLLGICLRSEGSPLVVLPYMKHGDLRNFIRNETHNPTVKDLIGFGLQVAKGMKYLASKKFVHRDLAARNCMLDEKFTVKVADFGLARDMYDKEYYSVHNKTGAKLPVKWMALESLQTQKFTTKSDVWSFGVLLWELMTRGAPPYPDVNTFDITIYLLQGRRLLQPEYCPDALYEVMLKCWHPKAEMRPSFSELVSRISSIFSTFIGEHYVHVNATYVNVKCVAPYPSLLPSQDNIDGEGNT
notes: MET receptor tyrosine kinase (hepatocyte growth factor receptor), mouse, endogenous; Endogenous protein, precipitated with goat anti-MET (R&D Systems); With HGF the receptor is phosphorylated (pMET blot); source: endogenous, lysate of crude synaptosomes from P14 mouse neocortex; endogenous, primary mouse neocortical neurons (14 DIV)
B4: N-cadherin (natural protein, UniProt P15116 160-906, looked up)
chain: DWVIPPINLPENSRGPFPQELVRIRSDRDKNLSLRYSVTGPGADQPPTGIFIINPISGQLSVTKPLDRELIARFHLRAHAVDINGNQVENPIDIVINVIDMNDNRPEFLHQVWNGSVPEGSKPGTYVMTVTAIDADDPNALNGMLRYRILSQAPSTPSPNMFTINNETGDIITVAAGLDREKVQQYTLIIQATDMEGNPTYGLSNTATAVITVTDVNDNPPEFTAMTFYGEVPENRVDVIVANLTVTDKDQPHTPAWNAAYRISGGDPTGRFAILTDPNSNDGLVTVVKPIDFETNRMFVLTVAAENQVPLAKGIQHPPQSTATVSVTVIDVNENPYFAPNPKIIRQEEGLHAGTMLTTLTAQDPDRYMQQNIRYTKLSDPANWLKIDPVNGQITTIAVLDRESPNVKNNIYNATFLASDNGIPPMSGTGTLQIYLLDINDNAPQVLPQEAETCETPEPNSINITALDYDIDPNAGPFAFDLPLSPVTIKRNWTINRLNGDFAQLNLKIKFLEAGIYEVPIIITDSGNPPKSNISILRVKVCQCDSNGDCTDVDRIVGAGLGTGAIIAILLCIIILLILVLMFVVWMKRRDKERQAKQLLIDPEDDVRDNILKYDEEGGGEEDQDYDLSQLQQPDTVEPDAIKPVGIRRLDERPIHAEPQYPVRSAAPHPGDIGDFINEGLKAADNDPTAPPYDSLLVFDYEGSGSTAGSLSSLNSSSSGGDQDYDYLNDWGPRFKKLADMYGGGDD
notes: N-cadherin (cadherin-2), mouse, endogenous; Endogenous protein, precipitated with rabbit anti-N-cadherin (Santa Cruz Biotechnology); source: endogenous, lysate of crude synaptosomes from P14 mouse neocortex

Holding throughout (settings): partners not purified
The target of assay [1] is B2. Description: co-IP; crude synaptosomes from P14 mouse neocortex, PBS or 25 ng/ml HGF for 5 min at 37 °C, lysed in HEPES pH 7.4 buffer with 1% Triton X-100; IP with goat anti-MET, mouse anti-β-catenin or rabbit anti-N-cadherin (control IgG in parallel), protein G plus agarose, washes in lysis buffer plus 150 mM NaCl; Western blot; band ratios as fold change HGF/PBS, 3 experiments. Background: In western blotting, separated proteins are transferred to a membrane and probed.

The assay “N-cadherin” addresses B4. The description is as above.
The assay “β-catenin” has as its target B1. The description is as above.
Assay [2] deals with B2. The assay is described as follows: proximity ligation; Duolink in situ PLA on fixed primary mouse neocortical neurons at 14 DIV, endogenous proteins, two antibodies (signal means 40 nm or less); PBS or 25 ng/ml HGF for 5, 10 or 30 min; PLA clusters per area of dendrite.

With B1, the figures for the “mean fold change (HGF/PBS) of co-immunoprecipitated protein” value (“mean fold change (HGF/PBS)” for short) (in assay [1]; with N-cadherin) were 0.399 fold and 1.39 fold, respectively. Regarding B2, the “mean fold change (HGF/PBS)” value in the assay with β-catenin is 0.376 fold.

B3: synapsin 1 (natural protein)
chain: not shown
notes: synapsin 1, mouse, endogenous; also called Syn 1; source: endogenous, lysate of crude synaptosomes from P14 mouse neocortex; endogenous, primary mouse neocortical neurons (14 DIV)
As for B3, the “fold increase in density of PLA signal (HGF against PBS)” value in assay [2] was about 1.5 fold. Further, in assay [1], the “mean fold change (HGF/PBS)” value was 1.8 fold. Regarding B4, the “mean fold change (HGF/PBS)” value with β-catenin was 1.31 fold.
